Results from US20210002644, “ANTI-CHYMASE APTAMER AND USE FOR SAME” (RIBOMIC INC., published 2021).

How the values were obtained:
Details in all cases: tags: Calbiochem Human Skin
[1] = target: T1, chymase (native, human skin mast cell) (Homo sapiens, UniProt P23946 P23946:22-247); test: inhibition; angiotensin I substrate; second G of GGGG 2'-OMe
T1 sequence: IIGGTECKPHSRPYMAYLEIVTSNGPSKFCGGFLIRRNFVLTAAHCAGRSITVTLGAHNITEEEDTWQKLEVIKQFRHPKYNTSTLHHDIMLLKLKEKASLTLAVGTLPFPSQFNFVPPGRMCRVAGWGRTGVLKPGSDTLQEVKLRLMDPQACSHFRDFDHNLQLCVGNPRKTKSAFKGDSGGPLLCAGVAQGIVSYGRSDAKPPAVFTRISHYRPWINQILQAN
Experimental: (§1) The total volume of solution for an enzyme reaction in the assay was set to 50 μL, and the reaction was performed in solution C buffer. At first, native (manufactured by Calbiochem) was diluted with solution C to give 5 μL thereof. Here, the native is chymase purified from human skin mast cell. The nucleic acid was serially diluted with solution C at a concentration of 0.0027-2 μM to give 25 μL thereof. The chymase solution (5 μL) and the nucleic acid solution (25 μL) were mixed, and the mixture was incubated at 37° C. for 5 min. On the other hand, […] angiotensin I (manufactured by PEPTIDE […], INC.) was prepared in solution C to give 20 μL thereof, which was incubated at 37° C. for 5 min. […] The whole mixture was centrifuged at 4° C., 14000 rpm for 10 min, and the supernatant (30 μL) was used for the next fluorescence induction reaction.
(§2) The above-mentioned supernatant (30 μL) was added to a 96 well plate (black, manufactured by Costar), a solution (15 μL) of 2% o-phthalaldehyde (manufactured by SIGMA) in methanol and 0.3M NaOH solution (170 μL) were added to each well, and the mixture was incubated at room temperature for 10 min. […] The plate was set on a microplate reader SpectraMax190 (manufactured by Molecular device) and the fluorescence intensity was measured at an excitation wavelength of 355 nm and a fluorescence wavelength of 460 nm. […]

[2] = target: T1, chymase (native, human skin mast cell); test: inhibition; angiotensin I substrate; 40 kDa PEG
Experimental: as §1, §2

[3] = target: T1, chymase (native, human skin mast cell); test: inhibition; angiotensin I substrate, 37 C, 1.8 mM Ca, 0.8 mM Mg, pH 7.6
Experimental: Whether the nucleic acids shown by SEQ ID NO: 9 and 10 inhibit the enzyme activity of chymase was determined by the following method. Angiotensin I is converted by chymase to angiotensin II, during which a peptide fragment His-Leu is released. Since the peptide His-Leu is fluorescently derivatized by o-phthalaldehyde, its fluorescence intensity can be quantitatively measured.
The total volume of solution for an enzyme reaction in the assay was set to 50 μL, and the reaction was performed in solution C buffer. At first, native (manufactured by Calbiochem) was diluted with solution C to give 5 μL thereof. Here, the native is chymase purified from human skin mast cell. […] The whole mixture was centrifuged at 4° C., 14000 rpm for 10 min, and the supernatant (30 μL) was used for the next fluorescence induction reaction.
The above-mentioned supernatant (30 μL) was added to a 96 well plate (black, manufactured by Costar), a solution (15 μL) of 2% o-phthalaldehyde (manufactured by SIGMA) in methanol and 0.3M NaOH solution (170 μL) were added to each well, and the mixture was incubated at room temperature for 10 min. […] The plate was set on a microplate reader SpectraMax190 (manufactured by Molecular device) and the fluorescence intensity was measured at an excitation wavelength of 355 nm and a fluorescence wavelength of 460 nm.

B1: SEQ ID NO: 33(9) (mixed)
RNA: AUGAUCGGACAUAACUAAUUAGGGGUGUCAA
modifications: idT-A(M)U(M)G(M)A(M)U(F)C(F)G(M)G(M)A(M)C(M)A(M)U(M)AAC(M)U(F)A(M)A(M)U(M)U(M)A(M)G(M)G(M)G(M)G(M)tG(M)U(M)C(M)A(M)A(M)-idT (F=2'-F, M=2'-OMe)
IC50 [1]: 1.35 nM

B2: SEQ ID NO: 33(18) (mixed)
RNA: B1 RNA
modifications: PEG-A(M)U(M)G(M)A(M)U(F)C(F)G(M)G(M)A(M)C(M)A(M)U(M)AAC(M)U(F)A(M)A(M)U(M)TA(M)G(M)GG(M)G(M)TG(M)U(M)C(M)A(M)A(M)-idT (F=2'-F, M=2'-OMe, PEG=40 kDa branched PEG)
IC50 [2]: 0.109 nM

B3: SEQ ID NO: 9 (ssRNA)
RNA: GGGAACGAAGCGACAGACGUUCCAGCGUCUAAUACGUGAAUAACCUGAUCGUAGGGGGUUCAAGUACUGAGGACAGA
modifications: 2'-F pyrimidines (U, C); purines 2'-OH
IC50 [3]: 0.22 nM
